Data on two molecules can be found in CN114736303A (YINGNUO LAKE MEDICINE HANGZHOU CO LTD, dated 2022).

This assay has as its target 4-1BB-mFc (UniProt Q07011 24-186). Kind of assay: SPR (Biacore), multi-cycle kinetics, antibody captured by anti-human IgG on CM5 chip, 4-1BB antigen as analyte. (SPR reads the build-up and loss of mass on a sensor chip optically.)

As usually defined, the Kd is the concentration at which binding is half-saturated. A low value points to tighter binding. Usually koff stands for the first-order rate constant of dissociation. Usually kon stands for the second-order rate constant of association. A higher kon goes with fast association.

B1: hu10B2 (人源化4-1BB抗体) (antibody, V domains shown)
VH: QVQLVESGGGVVQPGRSLRLSCAASGFTFSTFGLHWVRQAPGKGLEWVAYISSDSNTIYYADTMKGRFTISRDNSKNTLYLQMNSLRAEDTAVYYCTRGDPAYYGYGGRFVYALDFWGQGTLVTVSS
VL: DVVVTQTPLSLSVTPGQPASISCRSSQSLTNSYGHTYLSWYLQKPGQSPQLLIYGISIRFSGVPDRFSGSGSGTDFTLKISRVEAEDVGVYYCLQGTHQPWTFGGGTKVEIK
notes: The antibody was captured with anti-human IgG in SPR; also called 4-1BB(hu10B2); hu10B2 4-1BB抗体
Molecule B1 displayed a Kd of 0.338 nM, a koff of 0.000204 s⁻¹ and an on-rate constant (kon) of 602000 M⁻¹ s⁻¹.

B2: hu6F9B1A6/hu10B2-scFv双功能抗体 (人源化PD-L1/4-1BB双功能抗体) (bispecific antibody, human IgG4 S228P, F234A L235A)
heavy: QVQLVQSGAEVKKPGSSVKVSCKASGYTFIGYTVHWVRQAPGQGLEWIGWIYPGSGSIKYNEKFKDRATLTADKSTSTVYMELSSLRSEDTAVYYCARHGTGKFNYFDVWGQGTTVTVSSASTKGPSVFPLAPCSRSTSESTAALGCLVKDYFPEPVTVSWNSGALTSGVHTFPAVLQSSGLYSLSSVVTVPSSSLGTKTYTCNVDHKPSNTKVDKRVESKYGPPCPPCPAPEAAGGPSVFLFPPKPKDTLMISRTPEVTCVVVDVSQEDPEVQFNWYVDGVEVHNAKTKPREEQFNSTYRVVSVLTVLHQDWLNGKEYKCKVSNKGLPSSIEKTISKAKGQPREPQVYTLPPSQEEMTKNQVSLTCLVKGFYPSDIAVEWESNGQPENNYKTTPPVLDSDGSFFLYSRLTVDKSRWQEGNVFSCSVMHEALHNHYTQKSLSLSPGKGGGGSGGGGSDVVVTQTPLSLSVTPGQPASISCRSSQSLTNSYGHTYLSWYLQKPGQSPQLLIYGISIRFSGVPDRFSGSGSGTDFTLKISRVEAEDVGVYYCLQGTHQPWTFGGGTKVEIKGGGGSGGGGSGGGGSQVQLVESGGGVVQPGRSLRLSCAASGFTFSTFGLHWVRQAPGKGLEWVAYISSDSNTIYYADTMKGRFTISRDNSKNTLYLQMNSLRAEDTAVYYCTRGDPAYYGYGGRFVYALDFWGQGTLVTVSS
VL: DIQLTQSPSFLSASVGDRVTITCRASSTVNYMHWYQQKPGKAPKPWIYATFNLASGVPSRFSGSGSGTEYTLTISSLQPEDFATYYCQTWSSYPLTFGQGTKLEIK
notes: also called hu6F9B1A6/4-1BB; hu6F9B1A6-10B2-CC
Take B2: the Kd was determined as 0.423 nM, the koff amounted to 0.000122 s⁻¹ and the kon was determined as 289000 M⁻¹ s⁻¹.
